Results on 167 variants are retold here after the RNAGym collection of RNA variant scans (doi:10.7554/elife.90254).

To fix the notation:
B1: LINE1-full (parent)
chain: UACGUAGGUGGUUUUCCCCUGAUAGUGCUAAGGGGGCCUGGAAGUUUGGACUGGGCAGAGCUCAACACAGCGUGGCAAAGUGGCUGUGGCUAGACUGCCUCUCUGGAUUCCUCGUCACUCAGCAGGGCAUCUCUGAGAGAAAUGCC

The variants in the data set derive from B1. Kind of data set: self-cleavage, relative activity (ratio to wild type); higher = more cleavage; in vitro, sequencing; the parent is a self-cleaving ribozyme.
With A50U U85A, the self-cleavage stood at 0.05.
For G49U A92G, the self-cleavage was found to be 0.04.
The result for A50C G82A reads 2.06; that for A50C C146U, 1.9.
With C51U A67G the figure was 0.5.
The result for U52C A78U reads 1.56; that for U52C A59U, 0.72.
Turning to A50G U119A, the self-cleavage was 0.96.
The result for A50G A136U reads 1.15; that for A50G A136G, 1.04; that for U47G U112A, 0.94.
With U47G U112C the figure was 0.8; with U52C A129G, 1.23.
U52C A140G: the self-cleavage came out at 1.1.
With A50G C84U the figure was 0.11; with U52A A124U, 1.15; with U52A A124G, 1.07.
The result for G49A U134C reads 0.75; that for G49A U134A, 1.05.
The result for U52A C110U reads 1.23; that for U52A C110G, 1.15.
For U52A C110A, the self-cleavage turned out to be 1.66.
With U52A A140U the figure was 1.57.
With U52A G72A, the self-cleavage was 1.55.
The result for C51U U91A reads 0.84; that for A50G C68U, 0.1; that for C51U A59G, 0.09.
With A50U A142G the figure was 1.01; with U52A G80C, 0.98; with A50C U81A, 1.76.
The result for U47G U85C reads 0.33; that for U47G U85A, 0.05; that for A50U A69C, 0.04.
As for A50G U112C, the self-cleavage came out at 0.73.
The result for U52A U87A reads 0.08; that for U52A U87G, 0.29.
The result for G48C U91C reads 1.05; that for G48A A65G, 0.03; that for G49A A107G, 0.73.
With A50G U102C the figure was 1.51.
For A50U G144A, the self-cleavage was 1.37.
With A50U G144C the figure was 0.79; with U47G G60A, 0.02; with A50G U130A, 0.83.
With A50G A69U the figure was 0.1; with A50G A69G, 0.35; with A50C A57U, 0.
With A50G A79C the figure was 1.02; with A50G A79G, 1; with U52A G114C, 1.34.
For U52A U73C, the self-cleavage was 2.24.
Take U52A U73A: the self-cleavage turned out to be 1.63.
The result for A50G G53C reads 0.13.
On to G48U U81A, for which the self-cleavage amounted to 1.8.
The result for U47G U130C reads 1.24; that for G49A A141G, 1.64; that for A50G A107U, 1.24.
U52C: the self-cleavage was 1.24.
With U52A the figure was 1.34; with U47G U96C, 0.21; with U47G G97A, 0.05.
The result for A50U A59U reads 0.67.
The result for U52C A77U reads 1.07; that for U52C A77G, 2.8; that for A50U A67G, 0.33.
In the case of U47G U52A, the self-cleavage was 1.18.
On to G48A C131G, for which the self-cleavage stood at 0.17.
Take A50G G82A: the self-cleavage turned out to be 1.04.
With C51U A142U the figure was 0.87; with G49U G70A, 0.04.
With A50G G54A the figure was 0.16; with G49U C98A, 0.04; with U47G U119A, 1.32.
With A50G G127A the figure was 0.68; with C51U U102C, 0.41.
For the variant G49C A141U, the self-cleavage is 1.55.
With U52A G54C the figure was 0.43; with U52A C95A, 0.09.
As to G49A U96C, the self-cleavage stood at 0.03.
Regarding C51A U108A, the self-cleavage is 1.31.
With A50G A141G the figure was 1; with A50G A141U, 1.54.
With U52A U91A the figure was 0.63; with A50C A121G, 2.3.
For the variant A50G A129U, the self-cleavage stood at 0.26.
With A50G A129C the figure was 0.75.
The result for A50G A129G reads 1.22; that for U52A C128U, 1.38.
The result for C51U G137U reads 1.25; that for A50U U81A, 1.1; that for A50U U81G, 0.74.
With U52A G126C, the self-cleavage was determined as 1.81.
The result for C51U A136G reads 1.34; that for G49A U81A, 1.95; that for A50G A121G, 1.11.
The result for A50G A121U reads 0.48; that for U47G G135A, 0.79.
Consider A50U C146U, for which the self-cleavage was determined as 1.07.
With U52A A57G the figure was 0.89; with U52A A57U, 0.14; with G49A U143C, 1.09.
With G49A U143G the figure was 1.1; with A50C G122C, 1.1; with U47G A142C, 1.25.
The result for G49A A79G reads 0.97.
Take G49A U102C: the self-cleavage worked out at 1.11.
With A50G C51U the figure was 0.62; with U52A A78U, 2.37; with U52A A78G, 1.43.
The result for A50U A79C reads 1.3; that for A50U A79G, 1.27; that for G49A U119A, 1.15.
With A50G C56U the figure was 0.06; with G49C A121G, 0.93; with G48A A136G, 1.62.
In the case of A50G A78U, the self-cleavage stood at 1.2.
The result for A50G A78G reads 0.53.
With C51U U52C the figure was 0.99; with C51U U104C, 1.62.
The result for G48A U134A reads 0.83; that for U52A A117U, 1.35; that for U52A A117G, 1.43.
U52C A64U: the self-cleavage came to 0.45.
The result for U52C A64G reads 0.34; that for C51U U115C, 1.98.
With U52C A138C, the self-cleavage is 1.62.
With U52A U112A the figure was 0.8; with U52A A59U, 0.4.
With U52A A59G the figure was 0.03; with G48U A57U, 0.08; with A50G U132C, 1.07.
With C51U A65G the figure was 0.05.
U52A C116U: the self-cleavage was 1.18.
As to U47G A79U, the self-cleavage was determined as 2.35.
With U52A U102C the figure was 0.88; with A50C A107G, 1.53.
The result for C51U A77G reads 2.03.
With U52A U130G the figure was 1.24; with A50C A65U, 0.31.
Take G49U U108C: the self-cleavage stood at 1.5.
As to U47G A124G, the self-cleavage was determined as 0.56.
With U52C A94G the figure was 0.24; with G48A G49U, 0.57; with U52A A79U, 2.26.
Regarding C51A U73G, the self-cleavage turned out to be 0.69.
With G49A G122C the figure was 1.28; with G49A G82U, 1.49; with G48U A117G, 1.13.
For the variant A50G U96G, the self-cleavage was found to be 0.26.
For A50G G80A, the self-cleavage amounted to 1.79.
With A50G G80U the figure was 0.35; with U52C A69G, 0.11; with U52C A69U, 0.1.
The result for C51U U100C reads 1.68; that for A50U A94U, 0.27.
The result for C51U A64U reads 0.46.
For G48A G93U, the self-cleavage was 0.03.
With U52A U81G the figure was 1.63; with U52A U81C, 1.51.
With G48A A140G the figure was 1.02.
With G49A A129U, the self-cleavage worked out at 1.46.
Regarding G49A A129G, the self-cleavage was 1.69.
With G48U A64G the figure was 0.18.
The result for A50G G83A reads 0.28.
With U47G G48U the figure was 0.74; with U52C A65U, 0.19.
For A50G C123U, the self-cleavage stood at 0.43.
